From patent CN115125215A

Key:
[1] = biological target: 原核表达并纯化的sIFN-λ4重组蛋白 (porcine IFN-λ4, E. coli, pET-15b-sIFN-λ4) (pig); assay: indirect ELISA, antigen coated in 2-fold dilutions; positive if OD630nm of the well : OD630nm of the negative well ≥2.1
[2] = biological target: 原核表达并纯化的sIFN-λ4重组蛋白 (porcine IFN-λ4, E. coli, pET-15b-sIFN-λ4) (pig); assay: indirect ELISA, purified ascites antibody diluted 100-fold and then in 2-fold steps to 100×2^12

最低检测限 (lowest detectable amount of coated antigen) [1]: 6.25 ng
效价 (ELISA titre) (fold dilution) [2]: 205000
B1: 单克隆抗体λ4-1A2 (sIFN-λ4单克隆抗体, secreted by hybridoma cell line λ4-1A2, CCTCC NO:C2022132) (antibody, V domains shown)
VH: QVTLKESGPGKLQPSQTLTLTCSFSGFSLNTYGIGVAWIRQPSGKGLEWLAHIWWNDNKYYNSALKTRLTISKDTSNNQVFLKIASVDTADTATYYCASIKGDYWGQGTS
VL: NIVLTQSPASLAVSLGQRATISCRASKSVDSFGKSFMHWYQQKPGQPPKLLIYLVSNLESGVPARFSGSGSRTDFTLTIDPVEADDAATYYCQQNNEDPPTFGGGTKLEIKR
